Assay results as given in US20220009996A1 (NORTHWESTERN UNIVERSITY, published 2022).

T1: Recombinant Human VCAM-1/CD106 Fc chimera protein (R&D Systems) (human, UniProt P19320 25-698)
T1 construct: Bought from R&D Systems; also called VCAM-1 protein; not shown: Fc part (and any linker or His tag) of the bought chimera is not described
T1 sequence (looked up): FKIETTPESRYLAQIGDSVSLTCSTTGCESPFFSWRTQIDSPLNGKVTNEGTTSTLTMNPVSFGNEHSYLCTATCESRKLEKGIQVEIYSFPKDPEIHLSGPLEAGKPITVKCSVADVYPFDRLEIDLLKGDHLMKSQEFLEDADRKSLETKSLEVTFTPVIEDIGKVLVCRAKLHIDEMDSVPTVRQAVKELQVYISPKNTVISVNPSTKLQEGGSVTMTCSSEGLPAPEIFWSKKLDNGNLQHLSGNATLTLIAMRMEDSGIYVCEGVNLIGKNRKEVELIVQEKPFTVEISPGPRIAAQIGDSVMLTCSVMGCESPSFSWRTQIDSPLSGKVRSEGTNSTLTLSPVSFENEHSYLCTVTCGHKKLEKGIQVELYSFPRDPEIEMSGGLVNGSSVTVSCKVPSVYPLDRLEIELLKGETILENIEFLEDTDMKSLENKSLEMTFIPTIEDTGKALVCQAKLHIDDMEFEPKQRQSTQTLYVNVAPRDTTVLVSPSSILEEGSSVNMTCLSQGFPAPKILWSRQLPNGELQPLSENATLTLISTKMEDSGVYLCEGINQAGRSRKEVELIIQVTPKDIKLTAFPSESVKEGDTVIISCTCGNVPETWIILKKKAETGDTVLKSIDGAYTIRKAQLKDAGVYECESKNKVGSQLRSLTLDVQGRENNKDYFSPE


Assays:
[1] = molecular target: T1, Recombinant Human VCAM-1/CD106 Fc …; assay: BLI (BLItz), VCAM-1 Fc chimera immobilized on Anti-Penta-HIS biosensor, serial dilutions of PA nanofibers
[2] = molecular target: T1, Recombinant Human VCAM-1/CD106 Fc …; assay: bio-layer interferometry (BLItz): VCAM-1 Fc chimera immobilised on an Anti-Penta-HIS biosensor, PA nanofibers in DPBS as analyte, 300 s association and 300 s dissociation

Kd [1] | binding result [2] | Binder
280 nM |  | VVVAAAEEEGSGVHPKQH (HELM PEPTIDE1{[CCCCCCCCCCCCCCCC(=O)[*:2]].V.V.V.A.A.A.E.E.E.G.S.G.V.H.P.K.Q.H.[am]}$$$$V2.0; SMILES CCCCCCCCCCCCCCCC(=O)N[C@H](C(=O)N[C@H](C(=O)N[C@H](C(=O)N[C@@H](C)C(=O)N[C@@H](C)C(=O)N[C@@H](C)C(=O)N[C@@H](CCC(=O)O)C(=O)N[C@@H](CCC(=O)O)C(=O)N[C@@H](CCC(=O)O)C(=O)NCC(=O)N[C@@H](CO)C(=O)NCC(=O)N[C@H](C(=O)N[C@@H](Cc1c[nH]cn1)C(=O)N1CCC[C@H]1C(=O)N[C@@H](CCCCN)C(=O)N[C@@H](CCC(N)=O)C(=O)N[C@@H](Cc1c[nH]cn1)C(N)=O)C(C)C)C(C)C)C(C)C)C(C)C, Peptide amphiphile, self-assembled into supramolecular nanofibers after annealing; tested as nanofibers, so the number of copies in one assembly is not defined; In the microfluidic assay it stood as a coating on lymphocytes; also called VCAMb PA; VCAM-1 targeting PA) [VCAM-1 binding PA (C16V3A3E3GSGVHPKQH) nanofibers]
 | no binding (tested: 100 µM) | VVVAAAEEE (HELM PEPTIDE1{[CCCCCCCCCCCCCCCC(=O)[*:2]].V.V.V.A.A.A.E.E.E.[am]}$$$$V2.0; SMILES CCCCCCCCCCCCCCCC(=O)N[C@H](C(=O)N[C@H](C(=O)N[C@H](C(=O)N[C@@H](C)C(=O)N[C@@H](C)C(=O)N[C@@H](C)C(=O)N[C@@H](CCC(=O)O)C(=O)N[C@@H](CCC(=O)O)C(=O)N[C@@H](CCC(=O)O)C(N)=O)C(C)C)C(C)C)C(C)C, Peptide amphiphile without targeting moiety, self-assembled into nanofibers; also called filler PA; non-bioactive backbone PA) [backbone PA (C16V3A3E3) nanofibers]
 | no binding (tested: 100 µM) | VVVAAAEEEGSGQHPHVK (HELM PEPTIDE1{[CCCCCCCCCCCCCCCC(=O)[*:2]].V.V.V.A.A.A.E.E.E.G.S.G.Q.H.P.H.V.K.[am]}$$$$V2.0; SMILES CCCCCCCCCCCCCCCC(=O)N[C@H](C(=O)N[C@H](C(=O)N[C@H](C(=O)N[C@@H](C)C(=O)N[C@@H](C)C(=O)N[C@@H](C)C(=O)N[C@@H](CCC(=O)O)C(=O)N[C@@H](CCC(=O)O)C(=O)N[C@@H](CCC(=O)O)C(=O)NCC(=O)N[C@@H](CO)C(=O)NCC(=O)N[C@@H](CCC(N)=O)C(=O)N[C@@H](Cc1c[nH]cn1)C(=O)N1CCC[C@H]1C(=O)N[C@@H](Cc1c[nH]cn1)C(=O)N[C@H](C(=O)N[C@@H](CCCCN)C(N)=O)C(C)C)C(C)C)C(C)C)C(C)C, formed relatively short, closely packed fibers; also called scrambled control PA) [VCAMb-scr PA (C16V3A3E3GSGQHPHVK) nanofibers]
